Results taken from publication PMC8930771, “Structural basis of phosphatidylinositol 3-kinase C2α function” (Nature Structural & Molecular Biology, 2022).

Columns and labels:
[1] = target: T1, PI3KC2α^ΔN+ΔPX−C2 WT (mouse PI3KC2α amino acids 377–1,400) (mouse, UniProt Q61194 377-1400); assay: pull-down; 10 μg immobilized GST fusion protein as bait, 200 μg PI3KC2α^ΔN+ΔPX−C2 WT or RBD mutant in 500 μl binding buffer (20 mM Tris, pH 7.5, 100 mM NaCl), 1 h at 4 °C, three washes; SDS-PAGE and Coomassie blue staining, quantified with ImageJ; settings: both partners purified
T1 construct: Phosphatidylinositol 3-kinase type 2α (PI3KC2α), mouse, amino acids 377-1,400; lacks the disordered N-terminal region and the distal PX and C-C2 domains; Cloned into pFL10His; The purification paragraph names PI3KC2α^ΔN, ^ΔN+ΔC−C2, ^core 'and related mutants'; also called PI3KC2α^ΔN+ΔPX−C2 Wild-type (WT); source: Sf21 insect cells (baculovirus), purified (Nickel NTA, TEV cleavage, Superdex 200)
T1 sequence (looked up): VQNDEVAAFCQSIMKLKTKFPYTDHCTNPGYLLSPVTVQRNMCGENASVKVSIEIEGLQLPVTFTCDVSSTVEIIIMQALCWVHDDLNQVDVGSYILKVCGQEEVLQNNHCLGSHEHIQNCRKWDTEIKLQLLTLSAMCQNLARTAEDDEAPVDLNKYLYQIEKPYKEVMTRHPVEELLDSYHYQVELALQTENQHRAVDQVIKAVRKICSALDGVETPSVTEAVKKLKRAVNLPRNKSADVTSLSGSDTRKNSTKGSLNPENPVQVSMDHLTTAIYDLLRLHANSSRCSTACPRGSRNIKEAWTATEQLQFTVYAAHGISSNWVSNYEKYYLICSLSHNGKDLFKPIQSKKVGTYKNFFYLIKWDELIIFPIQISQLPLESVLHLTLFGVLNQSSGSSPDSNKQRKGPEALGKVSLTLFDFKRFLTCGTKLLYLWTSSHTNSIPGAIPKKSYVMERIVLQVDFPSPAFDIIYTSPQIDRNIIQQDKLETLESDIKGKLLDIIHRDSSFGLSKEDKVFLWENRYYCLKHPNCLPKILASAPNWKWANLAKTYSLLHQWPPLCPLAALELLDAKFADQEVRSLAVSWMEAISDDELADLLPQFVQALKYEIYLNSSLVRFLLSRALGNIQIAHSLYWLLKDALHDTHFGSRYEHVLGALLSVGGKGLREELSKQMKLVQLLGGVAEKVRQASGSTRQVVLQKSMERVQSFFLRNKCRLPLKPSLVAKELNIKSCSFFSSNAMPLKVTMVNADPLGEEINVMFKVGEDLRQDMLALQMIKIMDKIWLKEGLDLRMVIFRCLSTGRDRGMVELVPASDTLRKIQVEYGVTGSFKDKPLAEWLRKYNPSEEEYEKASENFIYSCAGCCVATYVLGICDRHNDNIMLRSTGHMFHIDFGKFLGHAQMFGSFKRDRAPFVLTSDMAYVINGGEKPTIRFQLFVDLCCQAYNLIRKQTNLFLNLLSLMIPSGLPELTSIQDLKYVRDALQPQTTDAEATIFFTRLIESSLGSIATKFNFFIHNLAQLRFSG

[2] = target: T2, PI3KC2α^ΔN+ΔPX−C2 RBD mutant (K426A, W458A, D461A, D462A) (mouse, UniProt Q61194 377-1400, K426A | W458A | D461A | D462A); assay: as above; settings: both partners purified
T2 construct: Phosphatidylinositol 3-kinase type 2α (PI3KC2α), mouse, amino acids 377-1,400, with four alanine substitutions in the RBD; source: Sf21 insect cells (baculovirus), purified (Nickel NTA, TEV cleavage, Superdex 200)
T2 sequence (looked up): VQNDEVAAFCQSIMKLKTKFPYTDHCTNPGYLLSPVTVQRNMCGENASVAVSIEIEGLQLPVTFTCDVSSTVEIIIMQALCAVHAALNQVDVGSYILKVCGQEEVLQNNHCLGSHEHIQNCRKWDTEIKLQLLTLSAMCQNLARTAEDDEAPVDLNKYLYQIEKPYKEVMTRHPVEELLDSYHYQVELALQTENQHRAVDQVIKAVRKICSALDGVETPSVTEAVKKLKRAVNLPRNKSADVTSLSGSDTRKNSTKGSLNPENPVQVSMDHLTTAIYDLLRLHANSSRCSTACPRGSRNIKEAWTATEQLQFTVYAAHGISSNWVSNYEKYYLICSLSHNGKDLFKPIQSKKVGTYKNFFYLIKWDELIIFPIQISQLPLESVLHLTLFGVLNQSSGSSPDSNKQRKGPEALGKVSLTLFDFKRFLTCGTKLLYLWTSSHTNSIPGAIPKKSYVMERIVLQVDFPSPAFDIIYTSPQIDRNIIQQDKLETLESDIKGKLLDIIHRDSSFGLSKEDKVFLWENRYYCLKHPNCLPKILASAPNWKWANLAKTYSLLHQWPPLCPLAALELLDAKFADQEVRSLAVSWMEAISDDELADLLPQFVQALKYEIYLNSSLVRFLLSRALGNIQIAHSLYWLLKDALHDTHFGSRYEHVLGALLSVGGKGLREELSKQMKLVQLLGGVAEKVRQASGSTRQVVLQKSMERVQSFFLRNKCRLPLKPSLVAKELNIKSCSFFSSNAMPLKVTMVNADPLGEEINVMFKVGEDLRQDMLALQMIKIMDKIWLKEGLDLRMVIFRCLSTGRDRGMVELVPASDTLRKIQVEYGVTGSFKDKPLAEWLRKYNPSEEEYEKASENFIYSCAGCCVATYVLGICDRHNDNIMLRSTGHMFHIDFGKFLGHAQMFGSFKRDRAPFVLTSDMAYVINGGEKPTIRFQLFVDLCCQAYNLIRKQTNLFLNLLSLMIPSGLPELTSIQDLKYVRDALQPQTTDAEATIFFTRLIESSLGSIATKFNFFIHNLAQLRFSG

binding result [1]: binds
binding result [2]: binds
B1: GST-distal C2 (PI3KC2α amino acids 1,561–1,686) (domain or fragment, mouse, UniProt Q61194 1561-1686, looked up)
chain: GAVKLSVSYRNGTLFIMVMHIKDLVTEDGADPNPYVKTYLLPDTHKTSKRKTKISRKTRNPTFNEMLVYSGYSKETLRQRELQLSVLSAESLRENFFLGGITLPLKDFNLSKETVKWYQLTAATYL
notes: PI3KC2α, mouse, C-terminal (distal) C2 domain, amino acids 1,561-1,686; also called GST-C2; GST-tagged C2; source: E. coli (pGEX-4T-1), immobilized GST fusion protein
